Reference: paper PMC3423370

Experiments:
[1] = biological target: Recombinant BgAChBP2 (Biomphalaria glabrata); assay: negative-stain electron microscopy; refolded recombinant protein, 20 mM Tris-HCl pH 8.0 with 50 mM imidazole; 2% uranyl acetate; for BgAChBP1 a 3D reconstruction (~20 Å) from ~3000 negatively stained particles
[2] = biological target: Biomphalaria glabrata acetylcholine-binding protein (BgAChBP), native rosette protein from hemolymph (Biomphalaria glabrata); assay: cryo-EM structure; native rosette protein at 1.2 mg/ml vitrified on C-flat holey carbon grids; 9770 single particles, icosahedral symmetry, resolution ~6 Å (FSC0.5 5.9 Å)
[3] = biological target: Biomphalaria glabrata acetylcholine-binding protein (BgAChBP), native rosette protein from hemolymph (Biomphalaria glabrata); assay: non-reducing SDS-PAGE; chromatographically enriched native BgAChBP under non-reducing against reducing conditions; disulfide-linked subunit dimers

Row | stoichiometry N [1] | Substance | stoichiometry N [2] | stoichiometry N [3]
1 | 5 | Recombinant BgAChBP2 (natural protein) |  | 
2 |  | Biomphalaria glabrata acetylcholine-binding protein (BgAChBP), native rosette protein from hemolymph (complex) | 60 | 2
